The nanobody polyreactivity screen of Harvey et al. (2022)

assay: yeast display, Sf9 membrane polyspecificity reagent, FACS + sequencing; frameworks hold sequencing errors
Summary of the method: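 Nanobodies from a synthetic yeast display library (Saccharomyces cerevisiae BJ5465), induced 36–48 hours with galactose, were stained 1 hour at 4 °C with 10% biotinylated, detergent-solubilized Sf9 membrane reagent, enriched on streptavidin microbeads, then FACS-sorted. Anti-HA (expression) and streptavidin (reagent binding) fluorescence set low and high (top ~1%) gates. Polyreactivity labels come from the gate of origin. Genes were colony-PCR amplified, MiSeq 2 × 250 sequenced and filtered by CDR length.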

Sequence	polyreactivity (PSR sort gate)
QVQLVESGGGLVQAGGSLRLSCAASGSTFWFYAMGWYRQAPGKERELVAAITSSGSSTYYADSVKGRFTISRDNAKNTVYLQMNCLKPEDTAVYYCAADDSNDSPSLYYVAYNYWGQGTQVTVSS	low polyreactivity
QVQLVESGGGLVQAGGSLRLSCAASGSTFWFYAMGWYRQAPGKERELVAVISNSGSTYYADSVKGRFTISRDNAKNTVYLQMNSLKPEDTAVYYCNKDGGGDSYWYDYWGQGTLVTVSS	low polyreactivity
QVQLVESGGGLVQAGGSLRLSCAASGSTFWFYAMGWYRQAPGKERELVAVISNSGSTYYADSVKGRFTISRDNAKNTVYLQMNSLKPEDTAVYYSNKDGGGDSYWYDYWGQGTQVTVSS	low polyreactivity
QVQLVESGGGLVQAGGSLRLSCAASGSTFWFYAMRWYRQAPGKERELVAAITRSAGSTYYADSVKGRFTISRDNAKNTVYLQMNSLKPEDTAVYYCAAQRESLYGGFDYWGQGTQVTVSS	low polyreactivity
QVQLVESGGGLVQAGGSLRLSCAASGSTFWGNAMGWYRQAPGKERELVAAISSRGGSTYYADSVKGRFTISRDNAKNTVYLQMNSLKPEDTAVYYCNTLQSSHGSSQYDSWGQGTQVTVSS	low polyreactivity
QVQLVESGGGLVQAGGSLRLSCAASGSTFWHYVMGWYRQAPGKERELVAAISNGGRTNYADSVKGRFTISRDNAKNTVYLHMKSMKPEVTAVYYCAARRRVSYHLYGYWGQGTQVTVSS	high polyreactivity
QVQLVESGGGLVQAGGSLRLSCAASGSTFWIYAMGWYRQAPGKERELFAAITLRSGSTYYADSVKGRFTISRDNSKNTVYLQMNSLKPEDTAVYYCATDSWGFDSPNYNYWGQCTQVTVSS	low polyreactivity
QVQLVESGGGLVQAGGSLRLSCAASGSTFWIYAMGWYRQAPGKERELVAAITLRSGSTYYADSVKGRFTISRDNAKNTVYLQMNSLKPEDTSVYYCATDSWGVDRPNYNYWGQGTQVTVSS	low polyreactivity
QVQLVESGGGLVQAGGSLRLSCAASGSTFWPYAMGWYRQAPGKERELVATIRWSGGSTSYADSVKGRFTISRDNAKNTVYVQMNSLKPEDTAVYYCAARDFHYYRFKTYGYWGQGTQVTVSS	high polyreactivity
QVQLVESGGGLVQAGGSLRLSCAASGSTFWQNAMGWYRPAPGKERELVAAIRSRGDRTYYADSVKGRFTISRDNAKNTVYLQMNSLKPEDTAVYYCAAYAGYSDQARYYYWGQGTLVTVSS	high polyreactivity
QVQLVESGGGLVQAGGSLRLSCAASGSTFWRYAMGWYRQAPGKERELVAGITWNGGSTYYADSVKGRFTISRDNAKNTVYLQMNCLIPEDTAVYYCAARRSWGYIYRLGYGMDYWGQGTQVTVSS	high polyreactivity
QVQLVESGGGLVQAGGSLRLSCAASGSTFWSNAMGWYRHAPGKERELVAVISRRCVRKYYADSVKGRFTISRDNAKNNVYLQMNSLKPEDTAVFYCNAEVYGELDYWGQGTQVNVSS	low polyreactivity
QVQLVESGGGLVQAGGSLRLSCAASGSTFWSNAMGWYRQAPGKERELVATINSGDGTNYADSVKGRFTISRDNAKNTVYLQMNSLKPEDTAVYYCAAEKYYPWGWYTYDYWGQGTQVTVSS	high polyreactivity
QVQLVESGGGLVQAGGSLRLSCAASGSTFWSYAMGWYRPAPGKERELVAAITSGGRTYYADSVKGRFTISRDNAKNTVYLQMNSLKPEDTAVYYCNAVVRHTYRRFDYWGQGTQVTVSS	high polyreactivity
QVQLVESGGGLVQAGGSLRLSCAASGSTFWSYAMGWYRQAPGKERELVAAITSGGRTYYADSVKGRFTISRDNAKNTVYLQMNSLKPEDTAVYYCNAVVRHTYRRFDYWGQGTQVTVSS	high polyreactivity
QVQLVESGGGLVQAGGSLRLSCAASGSTFWTNAMGWYRQAPGKERQLVAASTEDGGSTYYADSVKGRFTISRDNAKNTVYLQMNSLKREVTAVYYCATVIGYLDDYLFPYPVPYYYWGQGTQVTVSS	low polyreactivity
QVQLVESGGGLVQAGGSLRLSCAASGSTFWWYAMGWYRQAPGKERELVAAISIGGATKYADSVKGRFTISRDNAKNTFYLQMNILKPEDTAVYYCAAVVSYHYVPYGYWGQCTQVTVSS	low polyreactivity
QVQLVESGGGLVQAGGSLRLSCAASGSTFWWYAMGWYRQAPGKERELVATIRDGGSTNYADSVKGRFTISRDNAKNTVYLQMNSLKPEDTAVYYCNADVYPYYRKPWMDYWGQGTQVTVSS	low polyreactivity
QVQLVESGGGLVQAGGSLRLSCAASGSTFWYNAMGWYRQAPGKERELVAAITTRGDSTYYADSVKGRFTISRDNAKNTVYLQMNSLKPEDTAVYYCAADWAWYSYDWYYWYDYWGQGTQVTVSS	high polyreactivity
QVQLVESGGGLVQAGGSLRLSCAASGSTFWYYAMGWYRQAPGKERELDADITYSGVSTYYADSVKGRFTISRDNAKNTVYLQMNSLKPEDTAVYYCYADWGSVNGYAGYYYWGQGTQVTVSS	low polyreactivity

Sequence	polyreactivity (PSR sort gate)
QVQLVESGGGLVQAGGSLRLSCAASGSTFWYYAMGWYRQAPGKERELVAAITRDGTTYYADSVKGRFTISRDNAKNTVYLQMNSLKPEDTAVYYCAVDIDNWSEYDYWGQGTQVTVSS	low polyreactivity
QVQLVESGGGLVQAGGSLRLSCAASGSTFWYYAMGWYRQAPGKERELVAAITTGGDTTNYADSVKGRFTISRDNAKNTVYLQMNSLKPEDTAVYYCARDTGYDLIVLPDDSWGQGTQVTVSS	low polyreactivity
QVQLVESGGGLVQAGGSLRLSCAASGSTFWYYGMGWYRQAPGKERELVARINWSTGRTYYADSVKGRFTISRDNAKNTVYLQMNSLKPEDTAVYYCNALNPYKGQEAHYDYWGQGTQVTVSS	high polyreactivity
QVQLVESGGGLVQAGGSLRLSCAASGSTFWYYTMGWYRQAPGKERELVATISWRGGRTTYADSVKGRFTISRDNAKNTVYLQMNSLKPEDTAVYYCNAERFPGYGGPSRYLYQEYVYWGQGTQVTVSS	low polyreactivity
QVQLVESGGGLVQAGGSLRLSCAASGSTFYANAMGWYRQAPGKERELVAAIDSGGTTTYADSVKGRFTISRDNAKNTVYLQMNSLKPEDTAVYYCAADQYWYFWYDYWGQGTQVTVSS	low polyreactivity
QVQLVESGGGLVQAGGSLRLSCAASGSTFYANAMGWYRQAPGKERELVAAITRSGAGTYYADSVKGRFTISRDNAKNTVYLQMNSLKPEDTAVYYCNAGSSFWVSRIGYDYWGQGTQVTVSS	high polyreactivity
QVQLVESGGGLVQAGGSLRLSCAASGSTFYANTMGWYRQAPGKERELVAAISRRGGRTYYADSVKGRFTISRDNAKNTVYLQMNSLKPDDTAVYYCARRGYSSRTIKRYNYWGQGTQVTVSS	high polyreactivity
QVQLVESGGGLVQAGGSLRLSCAASGSTFYAYTMGWYRKAPGKERELVAGISRRGGTTYYADSVKGRFTISRDNAKNTVYLQMNSLKPEYTAVYYCAADKTKPQASEGYYAYYYWGQGTQVTVSS	low polyreactivity
QVQLVESGGGLVQAGGSLRLSCAASGSTFYAYTMGWYRQAPGKERELVADISRSGGSTYYADSVKGRFTISRDNAKNTVYLQMNSLKPEDTAVYYCAAASSYYRGHYDYWVQGTQVTVSS	high polyreactivity
QVQLVESGGGLVQAGGSLRLSCAASGSTFYDNAMGWYRQAPGKERELVARITWNGGRTYYADSVKGRFTISRDNAKNTVYLQMNSLKPEDTAVYYCNAVYWGYGKYDYWGQGTQVTVSS	high polyreactivity
QVQLVESGGGLVQAGGSLRLSCAASGSTFYDNTMGWYRQPPGKERELVAVITTDGDRTYYADSVKGRFTISRDNAKNTVYLQMKSLKPEDTAVYYCNARRAYWVVYPGDDYWGQGTQVSVSS	low polyreactivity
QVQLVESGGGLVQAGGSLRLSCAASGSTFYDYAMGWYRQAPGKERELVAAISQSGGSTYYADSVKGRFTISRDNAKNTVYLQMNSLKPEDTAVYYCAADSGYSLYDYWGQGTQVTVSS	low polyreactivity
QVQLVESGGGLVQAGGSLRLSCAASGSTFYDYAMGWYRQAPGKERELVAAISRSGGSTYYADSVKGRFTISRDNAKNTVYLQRNSLKPEDTAVYYCAASRATLLRYGYWGQGTQVTVSS	low polyreactivity
QVQLVESGGGLVQAGGSLRLSCAASGSTFYFNTMGWYRQAPGKERELVAAINSIGGSTYYADSVKGRFTISRDNAKNTVYLQMNSLKPEDTAVYYCAKLKRLYYWSSHTSYGYDYWGQGTQVTVSS	high polyreactivity
QVQLVESGGGLVQAGGSLRLSCAASGSTFYFYAMGWYRQAPGKERELVASITVRGGRTYCADSVKGRFTISRDNAKNTVYLQMNSLKPEDTAVYYCAENWSYRAYDYWGQGTQVTVSS	low polyreactivity
QVQLVESGGGLVQAGGSLRLSCAASGSTFYGNAMGWYRQAPGKERELVAAITGDGGSTYYADSVKGRFTISRDNAKNTVYLQMNSLKPEDTAVYYCAVDVIVLGQWPGQLDEFDYWGQGTQVTVSS	low polyreactivity
QVQLVESGGGLVQAGGSLRLSCAASGSTFYGNAMGWYRQAPGKERELVAAITWGDASTYYADSVKGRFTISRDNAKNTVYLQMNSLKPEDTAVYYCAADFYYAYYWGQGTQVTVSS	low polyreactivity
QVQLVESGGGLVQAGGSLRLSCAASGSTFYGYAMGWYRPAPGKERELVAAITIGGRTYYADSVKGRFTISRDNAKNTVYLQMNSLKPEDTAVYYCAAAILRTVPELGSRRTYYYWGQGTQVTVSS	high polyreactivity
QVQLVESGGGLVQAGGSLRLSCAASGSTFYGYAMGWYRQAPGKERELVAAISSNGDSTYYADSVKGRFTISRDNAKNSVYLQMNILKPEDTAVYYCATDPEGSTGGGYEFWGQGTQVTVSS	low polyreactivity
QVQLVESGGGLVQAGGSLRLSCAASGSTFYGYAMGWYRQAPGKERELVAVINYSGGTTSYADSVKGRFTISRDNAKNTVYLQMNSLKPEDTAVYYCAARRRWAILRYRGNYDYWGQGTQVTVSS	high polyreactivity
